{"source": "the supplement of paper PMC10724198", "note": "± gives the standard deviation of the averaged measurements.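 Also: PSI is a weighted mean of sequencing reads over stability bins, variants kept only with over 10 reads, mCherry proximal and sfGFP distal, peptide attached via GGGS linker.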"}
{"tested_on": "Saccharomyces cerevisiae", "assay": "protein stability index of tFT-peptide fusion (C-terminal peptide) (PSI (0-1 scale)); higher = more stable (slower turnover)", "conditions": "genetic background: wild type; temperature: 30 C"}
{"sequence": "EYLHPARITGVL", "protein stability index": "0.733 ± 0.11"}
{"sequence": "GVLGGAGCGVVL", "protein stability index": "0.731 ± 0.023"}
{"sequence": "PPLSSFSHHSFG", "protein stability index": "0.715 ± 0.069"}
{"sequence": "SCQSPSSQEYST", "protein stability index": "0.751 ± 0.056"}
{"sequence": "PPPRPRPSSRSI", "protein stability index": "0.71 ± 0.016"}
{"sequence": "RNRYCNLRVGFD", "protein stability index": "0.679 ± 0.011"}
{"sequence": "PPLPPAPPPSPP", "protein stability index": "0.652 ± 0.029"}
{"sequence": "TSLGSFLCGMCR", "protein stability index": "0.6506 ± 0.0046"}
{"sequence": "KKKQTKGNQKPK", "protein stability index": "0.7623 ± 0.0011"}
{"sequence": "CGYAAGGELLQD", "protein stability index": "0.705 ± 0.012"}
{"sequence": "FLRLVRIPNQVQ", "protein stability index": "0.6531 ± 0.0014"}
{"sequence": "FFAPPSSPSFSR", "protein stability index": "0.822 ± 0.063"}
{"sequence": "QASEYNREQSGL", "protein stability index": "0.6732 ± 0.00076"}
{"sequence": "PRSMLIFPSFPF", "protein stability index": "0.825 ± 0.042"}
{"sequence": "GGGRALEGAAGP", "protein stability index": "0.583 ± 0.063"}
{"sequence": "ARYTGPTRIRAE", "protein stability index": "0.672 ± 0.1"}
{"sequence": "AWVVVGEGKGWR", "protein stability index": "0.717 ± 0.035"}
{"sequence": "LAGGGARWGVVR", "protein stability index": "0.659 ± 0.033"}
{"sequence": "SLMCFDLSTFLG", "protein stability index": "0.634 ± 0.08"}
{"sequence": "PRYPLLPAHTLI", "protein stability index": "0.705 ± 0.029"}
{"sequence": "FSFCRLPDSPSS", "protein stability index": "0.698 ± 0.026"}
{"sequence": "SAFGGAGVLGHR", "protein stability index": "0.6799 ± 0.0027"}
{"sequence": "LPPRLPLSLDVL", "protein stability index": "0.675 ± 0.086"}
{"sequence": "SLVLRPTGILLI", "protein stability index": "0.536 ± 0.019"}
{"sequence": "KTLVRSFSIIEG", "protein stability index": "0.657 ± 0.026"}
{"sequence": "PPADKRILQQIR", "protein stability index": "0.692 ± 0.039"}
{"sequence": "RLFSPFTLPPFF", "protein stability index": "0.739 ± 0.063"}
{"sequence": "SSPESPPTPRSL", "protein stability index": "0.678 ± 0.064"}
{"sequence": "LAGISSNRHLRR", "protein stability index": "0.753 ± 0.067"}
{"sequence": "FSGCVEIYWHWL", "protein stability index": "0.662 ± 0.011"}
{"sequence": "PLRSFSLRPFPL", "protein stability index": "0.775 ± 0.06"}
{"sequence": "VAVGIEGGGWGV", "protein stability index": "0.764 ± 0.032"}
{"sequence": "RGGGVWGKEDSQ", "protein stability index": "0.717 ± 0.052"}
{"sequence": "VVRSDFCFFFGI", "protein stability index": "0.754 ± 0.065"}
{"sequence": "VLLRLVGLCQYL", "protein stability index": "0.50067 ± 0.0004"}
{"sequence": "GRGVGWRACGVV", "protein stability index": "0.685 ± 0.018"}
{"sequence": "PGGQLRSHPPNV", "protein stability index": "0.718 ± 0.013"}
{"sequence": "AVDPGASFPVSV", "protein stability index": "0.698 ± 0.0086"}
{"sequence": "PSPPPLLPRPHL", "protein stability index": "0.714 ± 0.1"}
{"sequence": "PMNVSDPRKVGR", "protein stability index": "0.556 ± 0.037"}
{"sequence": "DQFRLLQYWEAS", "protein stability index": "0.72 ± 0.048"}
{"sequence": "PVTALIASLILR", "protein stability index": "0.611 ± 0.031"}
{"sequence": "PLLALANSPLYR", "protein stability index": "0.6708 ± 0.005"}
{"sequence": "PPDHLTHPHIVN", "protein stability index": "0.693 ± 0.013"}
{"sequence": "RRRTTTNFKVGH", "protein stability index": "0.672 ± 0.014"}
{"sequence": "PPPHPHLPPHSD", "protein stability index": "0.69 ± 0.06"}
{"sequence": "PSPPPHPGGTRR", "protein stability index": "0.652 ± 0.057"}
{"sequence": "SAYQDFTAILLG", "protein stability index": "0.703 ± 0.16"}
{"sequence": "VTLSPSLPGFPL", "protein stability index": "0.6839 ± 0.00089"}
{"sequence": "AQPDAFAGVWGV", "protein stability index": "0.7177 ± 0.0028"}
{"sequence": "PPPLPPALSPSH", "protein stability index": "0.679 ± 0.07"}
{"sequence": "GGGGPGGLVGAA", "protein stability index": "0.662 ± 0.035"}
{"sequence": "PLPRPPPPPPPS", "protein stability index": "0.7 ± 0.048"}
{"sequence": "YFALPPSAHRHQ", "protein stability index": "0.693 ± 0.059"}
{"sequence": "AHPGHRPSHPPY", "protein stability index": "0.727 ± 0.08"}
{"sequence": "SSRALFLPSFLP", "protein stability index": "0.731 ± 0.04"}
{"sequence": "PPPPRLSLHSPP", "protein stability index": "0.713 ± 0.0085"}
{"sequence": "LGASPTWGPARS", "protein stability index": "0.656 ± 0.016"}
{"sequence": "LYGLFRIADVRR", "protein stability index": "0.652 ± 0.15"}
{"sequence": "EWVCRAGVQGGA", "protein stability index": "0.691 ± 0.017"}
{"sequence": "IHLCPPPALRES", "protein stability index": "0.703 ± 0.0083"}
{"sequence": "GDGWLSGVPEEL", "protein stability index": "0.74 ± 0.017"}
{"sequence": "VCRSSGSFDLGI", "protein stability index": "0.774 ± 0.064"}
{"sequence": "DFVLSASIGFTR", "protein stability index": "0.673 ± 0.035"}
{"sequence": "ICHLTIFHLRRL", "protein stability index": "0.6151 ± 0.0037"}
{"sequence": "RTAKTSARATTL", "protein stability index": "0.705 ± 0.039"}
{"sequence": "AWVCRLDGPVGG", "protein stability index": "0.634 ± 0.04"}
{"sequence": "RILLSHGNSRSI", "protein stability index": "0.699 ± 0.013"}
{"sequence": "TLSLGCVDSHGV", "protein stability index": "0.696 ± 0.036"}
{"sequence": "SLHPSPPPLLPP", "protein stability index": "0.642 ± 0.093"}
{"sequence": "PRKVNAHKDTCH", "protein stability index": "0.693 ± 0.022"}
{"sequence": "VKVAFSIASRVD", "protein stability index": "0.79 ± 0.0028"}
{"sequence": "LWGPGAVWGRGR", "protein stability index": "0.699 ± 0.049"}
{"sequence": "SKYKITIYWREE", "protein stability index": "0.568 ± 0.0096"}
{"sequence": "VLGRLRGGRDRV", "protein stability index": "0.723 ± 0.023"}
{"sequence": "PLYSPPPHRYLL", "protein stability index": "0.653 ± 0.019"}
{"sequence": "TSLFVAGRVWRS", "protein stability index": "0.703 ± 0.014"}
{"sequence": "KQKRKENIHIIK", "protein stability index": "0.776 ± 0.033"}
{"sequence": "DYLSSPLSSPSP", "protein stability index": "0.667 ± 0.066"}
{"sequence": "PPSPHLPPPPAL", "protein stability index": "0.715 ± 0.016"}
{"sequence": "SQSEGTLELINK", "protein stability index": "0.679 ± 0.043"}
{"sequence": "RARARSVLGRRD", "protein stability index": "0.672 ± 0.0091"}
{"sequence": "VVVCGSSVLVLT", "protein stability index": "0.555 ± 0.041"}
{"sequence": "LSPYFWITEDAS", "protein stability index": "0.7028 ± 0.0051"}
{"sequence": "CCFFPSLRSPSF", "protein stability index": "0.726 ± 0.011"}
{"sequence": "PKLAELKKISDR", "protein stability index": "0.68 ± 0.063"}
{"sequence": "RKRKIKQYITTT", "protein stability index": "0.725 ± 0.043"}
{"sequence": "PSPLRLPPPSVP", "protein stability index": "0.712 ± 0.013"}
{"sequence": "ELINQENQPAYE", "protein stability index": "0.671 ± 0.038"}
{"sequence": "SIKDKFIVITLK", "protein stability index": "0.629 ± 0.11"}
{"sequence": "VGRWVLEARGVV", "protein stability index": "0.715 ± 0.031"}
{"sequence": "HPTAILLVPLLL", "protein stability index": "0.597 ± 0.029"}
{"sequence": "SPTAHAPALPSP", "protein stability index": "0.692 ± 0.049"}
{"sequence": "LFPRCYFARIVV", "protein stability index": "0.484 ± 0.033"}
{"sequence": "GWIGVFGLFGCG", "protein stability index": "0.752 ± 0.083"}
{"sequence": "DTSRGDWEVFLI", "protein stability index": "0.713 ± 0.061"}
{"sequence": "PPDLPPPPPPPT", "protein stability index": "0.7 ± 0.055"}
{"sequence": "TSPAPYPRPPPT", "protein stability index": "0.723 ± 0.036"}
{"sequence": "PPLSPPALPPPL", "protein stability index": "0.672 ± 0.0076"}
{"sequence": "VASKVNLPVWFW", "protein stability index": "0.702 ± 0.021"}
{"sequence": "YPKGKHSQDSHV", "protein stability index": "0.656 ± 0.039"}
